Results reported in the DeepSol protein solubility set.

Assay: soluble on expression in E. coli; label from the status in PepcDB or PDB records

Sequence | soluble on expression in E. coli
MTDLPLTGRARPDRRPHTLAEWRAEGGYEAVDRARSMAPAEIIDMVEAAHLNGRGGAGFPAGRKWRFMPERGTSPGEGPSYLIVNGDEMEPGAFKDRFLLEALPHQVIEGAIITARATHADEAIVLIRDEYRPGIAAVERAIHEARDAGLLGDLAIRVHPSAGRYIVGEETALITALEGHRAVPRKRPPFPAQSGLWGRPTTVNNVETISLVPHILSLGPQRFRALSRTEEGGTKLYGVSGRVKRPGLFEAPMGTTARELIERAGGVSGDGQLRAFQPGGGASGFFGPDRLDLPLDFGHVAKAGSMFGTGMLIVLDGTACPVGFLARHMRFYARESCGWCTPCREGLPLVAKILDRFAAGQGRRADLELLQMTAAEAAPRGRSFCDLMGGAMAPLASGLSMFAAEFEARLAEGERALEHHHHHH | not soluble
MTDTRASAHLYPAHDLAVCTDAGSAVERITAIYDRSAQAIRARFHAFARGEALDDDTPACYPYLGITVDPKTLVSDARPSWGTVAYPGVYGTTLTRPDLFREYYRVQIERLLHYHNSPVVVGVSNRPIPLPFVVEASTIDITPEQARALGGAFPLPDLAQIDDAIANGTYRPADNEPQPLSMFTAERVDLALQRLYHYTATHPKHFQRFVLFTNYQRYVDEFAALGRKLMEEGNDEGYVRFVEPGDTVHELGTPAPDDSHRIKGLPQMPAYHLVREDRLGVTLVNIGVGPSNAKTITDHLAVLRPHCWMMIGHCGGLRRSQQLGDYVLAHAYVRDDHVLDQDLPPWVPVPPIAEIQVALQEAVARITGLSGSDMKSRMRTGTVVSTDDRNWELKYQALYTRFNQSRAIAIDMESATIAANGFRLRVPYGTLLCVSDKPLHGELKLRGMANLFYRQRVSQHLAIGMEAVRLLRENGVETLHSRKLRSFDEPAFR | soluble
MTEFESTEDQKPTMLASLDHLSLRNWASPFEEASTPPTASDDSFQSSSEDNLSLRNWAPLSPNPETVKSAKSLRNYSTNPLIPSYICDLCESPKTSELRVAYDAATFQTTYSYSIIWDVEMNDVEHYRKVMETVSKSSANSSRSSFGYFFEARPGMCRLLRTLHNYATDTSQASLADYMIELSGRAPSPVVVKCGHYLCTACFDIVKNADGTYGCSSQQCYWKGSSRQESKKNYENDICRKQRAKALGMKDLGIDVKPASSASSNPIKETSDSSSETNCSLSSGPVSFNHTMLNSLTPVAEHSVAIMMVLVEPLEVYGIVHSYVEMSFPLDTNLAKALGVMLHRKKKILGDYVANGKLYFGFVNDDEKIGMRRIKSNYYDSLMVAEIPKFDDRVVLIFDVGDYVARGFKIYLK | not soluble
MTEFTLAHLSDPHLPLPPKTSLRHLASKRALGYLNWRRNRHLIHRRDILDTLVADLQAQQPDHIAVTGDLVNIALVNEFAPARQWLESVGPADRVSLVPGNHDAYVRSTAHRFAETFPDYISGDDATPGFPYLRRREAIAIIGVSSAVPTAPLRATGWLGAPQRAALEALLQSLAGERVFKVLLIHHPLQSRSRHKRLTDAADLIALLQRHPVDLVLHGHDHVHATVRIDTPFGAIPVVGVPSASAMNDRHRPSAAYNLFKISEGNDGWRCLEHHHHHH | not soluble
MTEHLKSNTMVLPLKKGAQKMTTITLKVSEADKTFMKAMAKFEGVSLSELIRTKTLEALEDEYDARVADLAYQEYLEDLEKGVEPITWEEMMHDLGLKDE | not soluble
MTEILQTLKEYIPISLEEMSGIKLMNRTDTKYVTSYQILKEILLAAGHDYRVQEVNGEYNIAYHTIYLDTADRDMYLTHQNGRVVREKIRIRTYVDSDLTFLEVKNKNNKGRTDKKRIRIGSIDTIKEDGGEAFLRQHAWYEQSQLLPLLENSFRRITLVNKHKTERLTIDTGVTFCCLQSGKISSLDNIVIIELKRDGHNSSPIKEILRKLHIQSSGFSKYCIGSALTVSHLKCNRLKPKLRMLNKMGVY | not soluble
MTEKDYGQVTGMVHSTESFGSVDGPGIRFIIFLQGCKLRCQYCHNPDTWEMETNNSKIRTVNDVLKEALQYKHFWGKKGGITVSGGEAMLQIDFITALFIEAKKLGIHTTLDTCGFTYRPTPEYHQVLDNLLAVTDLILLDLKEIDEKQHKIVTRQPNKNILQFARYLSDKQIPVWIRHVLVPGLTD | not soluble
MTEKKIDFKKEEKKFYAPKRKPERIFVPEMNFLMVDGKGDPDGEEYQKAVQSLYAIAYTIKMSKMGETRLDGYSDFVVPPLEGFWWSEGKFDLKDRDAWLWTSILRQPDFVTEEVLEWAKEVARKKKPDV | not soluble
MTELQHPVLVVDDETDILDLMEMTLMKMGLRVHTASGVAEAKNKLDSQRYSLVLTDMRMPDGSGLEVVQHINSRLLDTPVAVITAFGNADQAQEALRCGAFDPDTMQIQDYLDQIERDIIEQTLKQTEGNRTQAAKRLGISFRSMRYRMERLNIG | not soluble
MTENELLTRCGGKCELCGSDVELAIYDLPASDGHENEIMICENCSSQIAAPDTMDMNHWRCLNDSMWSQVPAVQVMSYRMLKRLSGESWAQDLLDMLYLEDDLRAWGDAEAAAASDDTPPTLDSNGAVLNAGDTVVIIKDLNVKGTSFVAKRGTAVRNIALTNNPEHIEGRVNGTRIVILTCFVKKSLEHHHHHH | soluble
MTEQLPNCPECGSAYAYEDRGLFICPECGHEWSPTEEVAEEGLVVKDSNGNLLADGDSVTVIKDLKVKGASGAIKQGTKVKNIRLVEGDHNIDCKVDGFGPMKLKSEFVKKN | not soluble
MTERKLVAERNFEVNGYDIDAMGIVSNIVYIRWFEDLRTDFINQYMPYSDMMNQQISPILMNTEAEYKTPITIHDKPVGRCYLVKASKLRWEFEFEIESEDAVHCIGKQSGTFFDLQKKKVTRLPEVFQTILSLEHHHHHH | not soluble
MTERLEFTESAFEILGRKWNGLIIQSLLDSDRGSLHFAELSRSVHACSDRVLTVRLKELEDAGIIKRVCCPDNGKLGYRLTEKGSSMRPLMSEISRWAAENI | not soluble
MTEWTGEERYQRIEDVDTEYFKTLKQQVDQSKFRQQFHIQPETGLLNDPNGLIFYKGKYYVSHQWFPLGAVHGLKYWYNYTSDDLINFKAEGPILNPDTKYDSHGVYSGSAFEYNGHLYYMYTGNHRDNHWQRHASQMIARLKEDGSVEKFPKPVISQQPEGYTSHFRDPKVFKYDEKYYAIIGAQNNDQQGRLLLYNTEDIINWHYLGEINTELDDFGYMWECPDYFNVDNQDVILICPQGIEPKGDQFKNIYQSGYILGKFDIEKLTYEHENFVELDNGFDFYAPQTFLDEKGRRVLIGWMGLPEIEYPTDNEGWAHCLTTPRVLNVENGQLKQRPYPALEKLRHNKETALGYANKFTRKLHPYEGKQYELIIDILDNDATEVYFELRTSKTSSTLIAYNKRENKITLDRSDSGLLPTNVEGTTRSTILDTPLKQLQIFVDTSSIEIFCNDGERVLTSRIFPTEDALGIKTSTESGQVYLQFTKYDLKDEHK | not soluble
MTFALGQRWISDTESDLGLGTVVAMDARTVTLMFAASEENRVYARNDAPVTRVTFNVGDVIDCQEGWSLKVEEVLEDEGLYTYFGTREDTQETAVVLREIFLSNQIRFNKPQDKLYAGQIDRMDNFVLRY | not soluble
MTFHYPNGIPYNHHEAQSPKKQVKKKRPVEFGNRGMDFEEAINQSNQYYLLNKQAVVHKKPTPVQIVKVDYPKRSAAVIKEAYFRQASTTDYNGVYQGRYIDFEAKETKNTTSFPFKNFHQHQIDHMEQCIAQQGICFVLLWFSSLKRCFFFSGENLITHWKNQAVTGKKSMPLALIEKEGIELSFGIAPRIPYLDAVEQYIQTH | not soluble
MTFYFYFVINMEKVAIYIIGDIVLAENTGKALKKWRNLFNIQQIELAKYLNVSPSVISDYEVGRRKNPGVNIIKKYVLALIEIDKEKGGQTIKALKRILDKSPSMKAILSIKEYENPITLNEFVNIIDGEIAVGDNSDTPIYGHTVVDSIKAILEMTGDDFYHLYGWTTERALIFTNVSTGRSPMVAVRVSIMKPRVVVLQGINKDKIDSLALKLAEIDNIPLITTHLDTKELIKRLNEIK | not soluble
MTHATVTQTVHYHNGETGGQMQADTTNEVNFDRTVTIDTVTGEITHYGDWEADGDDYFKGFDSPTFDGYFADVQHTGEVKGVDPEQGTVDDVTITYYALEHHHHHH | soluble
MTIDCHEDRRVLLVPHTGRPQNVASAALAAELLDDSGVGVRVLVPAEDTTVATHPVLGQFERVSHSPQATQSVDLVLVLGGDGTFLRAADLAHGADLPVLGINLGHVGFLAEWEKDSLDEAVRRVTKGSFRIEERMTLDVSVYDSNGTAIGRGWALNEVSIENSNRSGVLDATLEIDSRPVSSFGCDGIIVSTPTGSTAYAFSAGGPVLWPELDAILVVPNNAHALFTKPLVVSPRSSVAVESHPSAFPATAVMDGFRSISVPPGARVEVKRGSRSIKWVRLDDIPFTDRLVTKLRLPVEGWRGPKNMIPQINPHSALEHHHHHH | soluble
MTIEKIFTPQDDAFYAVITHAAGPQGALPLTPQMLMESPSGNLFGMTQNAGMGWDANKLTGKEVLIIGTQGGIRAGDGRPIALGYHTGHWEIGMQMQAAAKEITRNGGIPFAAFVSDPCDGRSQGTHGMFDSLPYRNDAAIVFRRLIRSLPTRRAVIGVATCDKGLPATMIALAAMHDLPTILVPGGATLPPTVGEDAGKVQTIGARFANHELSLQEAAELGCRACASPGGGCQFLGTAGTSQVVAEALGLALPHSALAPSGQAVWLEIARQSARAVSELDSRGITTRDILSDKAIENAMVIHAAFGGSTNLLLHIPAIAHAAGCTIPDVEHWTRINRKVPRLVSVLPNGPDYHPTVRAFLAGGVPEVMLHLRDLGLLHLDAMTVTGQTVGENLEWWQASERRARFRQCLREQDGVEPDDVILPPEKAKAKGLTSTVCFPTGNIAPEGSVIKATAIDPSVVGEDGVYHHTGRVRVFVSEAQAIKAIKREEIVQGDIMVVIGGGPSGTGMEETYQLTSALKHISWGKTVSLITDARFSGVSTGACFGHVSPEALAGGPIGKLRDNDIIEIAVDRLTLTGSVNFIGTADNPLTPEEGARELARRQTHPDLHAHDFLPDDTRLWAALQSVSGGTWKGCIYDTDKIIEVINAGKKALGI | not soluble
MTIHNFDLLVVGGGINGTGIARDAAGRHLSVCLCEQHDLASHTSSASTKLIHGGLRYLEYYEFALVSKALAEREILLRQAPHIVRPLHFILPHQPHLRPTWIIRAGLLLYDHLGFSRRTLPRSRRLNLAQHPAGQPLKQELHTGFMYCDAQVQDARLVVLNAMDAAQRGARILTRTRCVRTRRDGAHWLTELEDAQGRQQQIRTRAIVNAAGPWAVTFLDHIAQQPHQHTLRLVKGSHIVVPRLFEHEHAYIFQQPDRRIVFAIPYEQHFTLIGTTDVDYVADPANPHIDAAETMYLCNAVNSYFRQQITPEDVLWSYSGVRPLLNDGHNNASKVTRDYQLEILGNSAPLLNVFGGKLTTYRKLSEEAVNQLCVALDHPYRAWTANGPPLPGGEHHDIAALQNTLRQHRPWLPTATAQRLIHNYGTYAETLLGNATNLHTLGIHFGADLYQAEVDYLRTHEWACSAEDILWRRSKLGLHLDAHGTQRLEDYLRSCSRIPDHADTTTQLEHHHHHH | not soluble
MTIKWIDWVKQIQSIAQAGLTYSKDVYDIERFQQLRDISISMMSHYTKTDWEVVEKLFASETGYQTPKVDIRAVVFQNEKLLFVKEKSDGKWALPGGWADVGYTPTEVAAKEVFEETGYEVDHFKLLAIFDKEKHQPSPSATHVYKIFIGCEIIGGEKKTSIETEEVEFFGENELPNLSIARNTEDQIKEMFAYMKDPQKEKLID | not soluble
